{"source": "the Human Domainome abundance scans (Beltran et al. 2025)", "parents": {"B1": {"name": "Metastasis-associated protein MTA3, residues 265 to 317; numbered along this chain, Q9BTC8 (parent)", "chain": "RDEMEEWSASEASLFEEALEKYGKDFNDIRQDFLPWKSLTSIIEYYYMWKTTD"}}, "note": "± gives the uncertainty stated by the source.", "data": [{"variants_of": "B1", "experiment": "abundance fitness (aPCA) (normalised: wild type 0, dead -1); higher = more abundant; growth selection in yeast, the domain comes from the species named", "conditions": "Homo sapiens", "values": [{"variant": "F15V", "abundance fitness": "-0.316 ± 0.11"}, {"variant": "F15K", "abundance fitness": "-0.86 ± 0.11"}, {"variant": "F15W", "abundance fitness": "-1.02 ± 0.24"}, {"variant": "F15Q", "abundance fitness": "-0.217 ± 0.17"}, {"variant": "F15N", "abundance fitness": "-0.969 ± 0.21"}, {"variant": "F15G", "abundance fitness": "-0.788 ± 0.14"}, {"variant": "F15Y", "abundance fitness": "-1.15 ± 0.32"}, {"variant": "F15L", "abundance fitness": "-0.697 ± 0.12"}, {"variant": "F15R", "abundance fitness": "-0.485 ± 0.1"}, {"variant": "F15E", "abundance fitness": "-0.695 ± 0.24"}, {"variant": "F15P", "abundance fitness": "-0.918 ± 0.22"}, {"variant": "F15A", "abundance fitness": "-0.861 ± 0.15"}, {"variant": "F15D", "abundance fitness": "-0.578 ± 0.25"}, {"variant": "F15I", "abundance fitness": "-0.836 ± 0.16"}, {"variant": "F15S", "abundance fitness": "-0.543 ± 0.089"}, {"variant": "F15H", "abundance fitness": "0.397 ± 0.13"}, {"variant": "F15T", "abundance fitness": "-0.851 ± 0.14"}, {"variant": "F15M", "abundance fitness": "-0.528 ± 0.087"}, {"variant": "A18E", "abundance fitness": "-0.439 ± 0.27"}, {"variant": "A18N", "abundance fitness": "-0.863 ± 0.24"}, {"variant": "A18S", "abundance fitness": "-0.988 ± 0.14"}, {"variant": "A18G", "abundance fitness": "0.438 ± 0.098"}, {"variant": "A18L", "abundance fitness": "-0.627 ± 0.083"}, {"variant": "A18H", "abundance fitness": "-0.873 ± 0.14"}, {"variant": "A18W", "abundance fitness": "-0.817 ± 0.11"}, {"variant": "A18M", "abundance fitness": "-0.643 ± 0.14"}, {"variant": "A18T", "abundance fitness": "-1 ± 0.17"}, {"variant": "A18D", "abundance fitness": "-1.2 ± 0.39"}, {"variant": "A18Y", "abundance fitness": "-0.703 ± 0.19"}, {"variant": "A18R", "abundance fitness": "-0.913 ± 0.11"}, {"variant": "A18K", "abundance fitness": "-0.554 ± 0.23"}, {"variant": "A18C", "abundance fitness": "-0.32 ± 0.1"}, {"variant": "A18F", "abundance fitness": "-0.902 ± 0.17"}, {"variant": "A18P", "abundance fitness": "-0.912 ± 0.14"}, {"variant": "A18V", "abundance fitness": "-0.443 ± 0.15"}, {"variant": "A18Q", "abundance fitness": "-0.542 ± 0.13"}, {"variant": "E16V", "abundance fitness": "-0.589 ± 0.079"}, {"variant": "E16D", "abundance fitness": "-0.572 ± 0.27"}, {"variant": "E16I", "abundance fitness": "-0.693 ± 0.17"}, {"variant": "E16K", "abundance fitness": "-0.359 ± 0.2"}, {"variant": "E16S", "abundance fitness": "-0.324 ± 0.095"}, {"variant": "E16W", "abundance fitness": "-0.504 ± 0.14"}, {"variant": "E16A", "abundance fitness": "-0.119 ± 0.11"}, {"variant": "E16F", "abundance fitness": "-0.422 ± 0.16"}, {"variant": "E16H", "abundance fitness": "-0.202 ± 0.079"}, {"variant": "E16G", "abundance fitness": "-0.907 ± 0.13"}, {"variant": "E16M", "abundance fitness": "-0.608 ± 0.1"}, {"variant": "E16Y", "abundance fitness": "-0.185 ± 0.16"}, {"variant": "E16P", "abundance fitness": "-0.621 ± 0.096"}, {"variant": "E16R", "abundance fitness": "-0.427 ± 0.09"}, {"variant": "E16Q", "abundance fitness": "0.023 ± 0.08"}, {"variant": "E16L", "abundance fitness": "-0.557 ± 0.095"}, {"variant": "E16N", "abundance fitness": "-0.632 ± 0.29"}, {"variant": "E16C", "abundance fitness": "-0.725 ± 0.24"}, {"variant": "E16T", "abundance fitness": "-0.686 ± 0.11"}, {"variant": "E17F", "abundance fitness": "-0.515 ± 0.15"}, {"variant": "E17K", "abundance fitness": "-0.197 ± 0.097"}, {"variant": "E17R", "abundance fitness": "-0.304 ± 0.075"}, {"variant": "E17C", "abundance fitness": "-0.589 ± 0.1"}, {"variant": "E17L", "abundance fitness": "-0.175 ± 0.092"}, {"variant": "E17D", "abundance fitness": "-0.477 ± 0.28"}, {"variant": "E17G", "abundance fitness": "-0.772 ± 0.098"}, {"variant": "E17P", "abundance fitness": "-0.756 ± 0.082"}, {"variant": "E17A", "abundance fitness": "-0.598 ± 0.21"}, {"variant": "E17N", "abundance fitness": "-0.668 ± 0.12"}, {"variant": "E17S", "abundance fitness": "-0.428 ± 0.073"}, {"variant": "E17Q", "abundance fitness": "-0.557 ± 0.12"}, {"variant": "E17H", "abundance fitness": "-0.737 ± 0.12"}, {"variant": "E17M", "abundance fitness": "-0.333 ± 0.14"}, {"variant": "E17V", "abundance fitness": "-0.584 ± 0.14"}, {"variant": "E17I", "abundance fitness": "-0.591 ± 0.2"}, {"variant": "E17Y", "abundance fitness": "-0.39 ± 0.11"}, {"variant": "L14M", "abundance fitness": "-0.688 ± 0.21"}, {"variant": "L14Q", "abundance fitness": "-0.68 ± 0.15"}, {"variant": "L14A", "abundance fitness": "-0.396 ± 0.087"}, {"variant": "L14I", "abundance fitness": "-0.444 ± 0.11"}, {"variant": "L14D", "abundance fitness": "-0.723 ± 0.099"}, {"variant": "L14F", "abundance fitness": "-0.842 ± 0.11"}, {"variant": "L14W", "abundance fitness": "-0.956 ± 0.18"}, {"variant": "L14Y", "abundance fitness": "-0.353 ± 0.17"}, {"variant": "L14N", "abundance fitness": "-0.639 ± 0.17"}, {"variant": "L14V", "abundance fitness": "-0.686 ± 0.12"}, {"variant": "L14R", "abundance fitness": "-0.602 ± 0.082"}, {"variant": "L14K", "abundance fitness": "-0.168 ± 0.17"}, {"variant": "L14G", "abundance fitness": "-0.866 ± 0.12"}, {"variant": "L14H", "abundance fitness": "-0.945 ± 0.17"}, {"variant": "L14P", "abundance fitness": "-0.872 ± 0.2"}, {"variant": "L14E", "abundance fitness": "-1 ± 0.25"}, {"variant": "L19N", "abundance fitness": "-0.785 ± 0.18"}, {"variant": "L19T", "abundance fitness": "-0.581 ± 0.086"}, {"variant": "L19Q", "abundance fitness": "-0.34 ± 0.11"}, {"variant": "L19M", "abundance fitness": "-0.255 ± 0.16"}, {"variant": "L19A", "abundance fitness": "-0.67 ± 0.12"}, {"variant": "L19E", "abundance fitness": "-0.809 ± 0.2"}, {"variant": "L19R", "abundance fitness": "-0.607 ± 0.13"}, {"variant": "L19F", "abundance fitness": "0.459 ± 0.07"}, {"variant": "L19G", "abundance fitness": "0.002 ± 0.18"}, {"variant": "L19K", "abundance fitness": "-0.838 ± 0.23"}, {"variant": "L19Y", "abundance fitness": "0.49 ± 0.11"}, {"variant": "L19H", "abundance fitness": "-0.525 ± 0.11"}, {"variant": "L19C", "abundance fitness": "-1.03 ± 0.34"}, {"variant": "L19I", "abundance fitness": "0.027 ± 0.12"}, {"variant": "L19W", "abundance fitness": "0.043 ± 0.12"}, {"variant": "L19S", "abundance fitness": "-0.722 ± 0.11"}, {"variant": "L19D", "abundance fitness": "-0.92 ± 0.36"}, {"variant": "L19V", "abundance fitness": "0.113 ± 0.068"}, {"variant": "A12V", "abundance fitness": "0.076 ± 0.096"}, {"variant": "A12S", "abundance fitness": "-0.436 ± 0.1"}, {"variant": "A12H", "abundance fitness": "-0.041 ± 0.11"}, {"variant": "A12R", "abundance fitness": "0.22 ± 0.067"}, {"variant": "A12E", "abundance fitness": "-0.471 ± 0.21"}, {"variant": "A12L", "abundance fitness": "-0.473 ± 0.069"}, {"variant": "A12W", "abundance fitness": "-0.816 ± 0.21"}, {"variant": "A12P", "abundance fitness": "-0.805 ± 0.15"}, {"variant": "A12F", "abundance fitness": "-0.941 ± 0.27"}, {"variant": "A12M", "abundance fitness": "0.068 ± 0.12"}, {"variant": "A12I", "abundance fitness": "-0.117 ± 0.17"}, {"variant": "A12C", "abundance fitness": "-0.273 ± 0.099"}, {"variant": "A12K", "abundance fitness": "0.358 ± 0.077"}, {"variant": "A12Q", "abundance fitness": "0.215 ± 0.11"}, {"variant": "A12T", "abundance fitness": "-0.238 ± 0.085"}, {"variant": "A12Y", "abundance fitness": "-0.768 ± 0.15"}, {"variant": "A12G", "abundance fitness": "-0.618 ± 0.098"}, {"variant": "A12N", "abundance fitness": "-0.15 ± 0.093"}, {"variant": "A12D", "abundance fitness": "-0.875 ± 0.19"}, {"variant": "S13C", "abundance fitness": "-0.134 ± 0.14"}, {"variant": "S13W", "abundance fitness": "-0.689 ± 0.18"}, {"variant": "S13K", "abundance fitness": "0.502 ± 0.1"}, {"variant": "S13M", "abundance fitness": "0.128 ± 0.093"}, {"variant": "S13G", "abundance fitness": "-0.015 ± 0.082"}, {"variant": "S13E", "abundance fitness": "0.158 ± 0.11"}, {"variant": "S13H", "abundance fitness": "-0.242 ± 0.13"}, {"variant": "S13Y", "abundance fitness": "-0.631 ± 0.14"}, {"variant": "S13I", "abundance fitness": "-0.527 ± 0.23"}, {"variant": "S13N", "abundance fitness": "-0.261 ± 0.17"}, {"variant": "S13V", "abundance fitness": "0.066 ± 0.09"}, {"variant": "S13T", "abundance fitness": "-0.212 ± 0.1"}, {"variant": "S13D", "abundance fitness": "-0.326 ± 0.22"}, {"variant": "S13F", "abundance fitness": "-0.436 ± 0.16"}, {"variant": "S13L", "abundance fitness": "-0.045 ± 0.08"}, {"variant": "E11V", "abundance fitness": "-0.7 ± 0.12"}, {"variant": "E11H", "abundance fitness": "-0.175 ± 0.12"}, {"variant": "E11Q", "abundance fitness": "-0.811 ± 0.11"}, {"variant": "E11A", "abundance fitness": "-0.623 ± 0.092"}, {"variant": "E11I", "abundance fitness": "-1.1 ± 0.22"}, {"variant": "E11L", "abundance fitness": "-0.713 ± 0.088"}, {"variant": "E11R", "abundance fitness": "-0.92 ± 0.13"}, {"variant": "E11Y", "abundance fitness": "-0.788 ± 0.19"}, {"variant": "E11F", "abundance fitness": "-0.87 ± 0.087"}, {"variant": "E11M", "abundance fitness": "0.052 ± 0.11"}, {"variant": "E11D", "abundance fitness": "0.386 ± 0.078"}, {"variant": "E11G", "abundance fitness": "-0.68 ± 0.15"}, {"variant": "E11C", "abundance fitness": "-0.818 ± 0.21"}, {"variant": "E11N", "abundance fitness": "-0.91 ± 0.2"}, {"variant": "E11T", "abundance fitness": "-0.567 ± 0.081"}, {"variant": "E11S", "abundance fitness": "-0.883 ± 0.11"}, {"variant": "E11P", "abundance fitness": "-1.04 ± 0.19"}, {"variant": "E11K", "abundance fitness": "-0.562 ± 0.11"}, {"variant": "E11W", "abundance fitness": "-0.78 ± 0.1"}, {"variant": "S10P", "abundance fitness": "-0.743 ± 0.1"}, {"variant": "S10Y", "abundance fitness": "-0.158 ± 0.083"}, {"variant": "S10T", "abundance fitness": "-0.091 ± 0.08"}, {"variant": "S10R", "abundance fitness": "-0.156 ± 0.072"}, {"variant": "S10W", "abundance fitness": "0.031 ± 0.084"}, {"variant": "S10Q", "abundance fitness": "-0.252 ± 0.11"}, {"variant": "S10N", "abundance fitness": "-0.005 ± 0.14"}, {"variant": "S10M", "abundance fitness": "-0.152 ± 0.1"}]}]}
